Assay results reported in US20060148030A1, “Nuclear receptor err y 3” (FUJISAWA PHARMACEUTICAL CO., LTD, priority 2002, published 2006).

Molecular target: T1, ERα (Homo sapiens, UniProt P03372)
T1 construct: expressed in transfected cells; host or cells: CV-1 (African green monkey kidney)
T1 sequence (P03372 1-595): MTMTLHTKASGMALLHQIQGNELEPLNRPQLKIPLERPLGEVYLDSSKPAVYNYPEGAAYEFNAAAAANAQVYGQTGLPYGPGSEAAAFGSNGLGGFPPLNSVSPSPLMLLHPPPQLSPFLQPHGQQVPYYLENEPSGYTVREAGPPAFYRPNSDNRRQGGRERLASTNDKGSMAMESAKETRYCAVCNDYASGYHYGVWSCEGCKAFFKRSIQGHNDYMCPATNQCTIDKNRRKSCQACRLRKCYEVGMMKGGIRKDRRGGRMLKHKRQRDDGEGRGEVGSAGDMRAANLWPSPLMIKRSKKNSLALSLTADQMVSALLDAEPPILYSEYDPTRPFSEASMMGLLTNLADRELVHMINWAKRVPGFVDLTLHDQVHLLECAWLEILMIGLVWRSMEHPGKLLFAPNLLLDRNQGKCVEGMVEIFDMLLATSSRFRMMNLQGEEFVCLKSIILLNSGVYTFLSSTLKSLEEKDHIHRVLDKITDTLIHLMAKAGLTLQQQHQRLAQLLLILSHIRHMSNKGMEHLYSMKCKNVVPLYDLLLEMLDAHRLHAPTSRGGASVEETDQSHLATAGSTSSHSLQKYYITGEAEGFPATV
Test: Reporter gene assay, ERRγ3 or ERRγ2 coexisted with ERα in CV-1 cells
Type: cell-based
Details: ERRγ2 with ERα, CV-1 cells; FIGS. 19-20
Experimental: The reporter gene assay was performed using CV-1 cells (African green monkey kidney-derived cell line) as hosts. Host cells were transfected with luciferase reporter plasmids and expression plasmids for ERRγ3, ERRγ2, or both. They were then exposed to 4-hydroxytamoxifen at different concentrations (0, 10^−10 to −10^−5 M) for 24 hours, whereupon luciferase activity within the cells was measured.
Transfection was performed as follows: CV-1 cells were suspended at 2×10^5 cells/2.5 ml in DMEM medium supplemented with 10% fetal bovine serum, 2000 U/l of penicillin G, and 100 mg/l streptomycin. These cells were seeded to a 6-well plate at 2.5 ml/well, and cultured for 18 to 24 hours in a CO2 incubator at 37° C. in the presence of 5% CO2. 1 μg of each of the transcription factor expression plasmid, the luciferase reporter plasmid, and another luciferase reporter plasmid for normalizing the measured value (pRL-TK), were dissolved in Opti-MEM (Gibco BRL) to total of 150 μl. 7 μl of the cell transfection reagent LipofectAMINE 2000 (Gibco BRL) was diluted in 143 μl of Opti-MEM, and this was added to the mixture drop by drop while stirring. The mixture was incubated for 20 minutes.
The LipofectAMINE-DNA mixture was diluted in 1.5 ml of Opti-MEM, and added to cells that had been twice washed with 1 ml of PBS(−). The cells were cultured for four hours. The transfection reagent was removed from the culture, and 200 μl of trypsin/EDTA was added to the cells, which were then incubated at 37° C. for five minutes. […] of DMEM was added to suspend the cells, which were transferred to a centrifuge tube, and centrifuged for three minutes at 1000 rpm. After centrifugation, the cells were resuspended in DMEM to a concentration of 1.6×10^4 cells/100 μl, and 100 μl samples were seeded to a 96-well plate. When evaluating agents, a two-fold concentrated solution was made by pre-diluting a 1000 times concentrated agent DMSO solution with culture medium. 50 μl of the solution was mixed with 50 μl of a cell suspension at 1.6×10^4 cells/50 μl, and the culture was incubated in a CO2 incubator at 37° C. and 5% CO2 for 24 hours.
Luciferase activity was measured using the Dual-Luciferase™ Reporter Assay System (Promega). The culture supernatant was removed from each well of the 96-well plate and washed once with 100 μl of PBS(−). 20 μl of ×1 PLB (Passive Lysis Buffer) was added, and the mixture was incubated at room temperature for 15 minutes, and then stored at −20° C. in the freezer until use. […] The protocol for measurement was as follows: 50 μl of Luciferase Assay Reagent II was added to each well, stirred for 0.3 seconds and measured for one second. […] of Stop&Glo™ Reagent was then added, stirred for 0.3 seconds, and measured for one second. […] Average values and standard errors were calculated from triplicate samples.
To confirm whether or not ERRγ3 can regulate the transcription-controlling function of nuclear receptors other than ERRγ2, ERRγ3's function of regulating the transcription-controlling activity of nuclear receptors related to ERRγ (ERα, ERβ, and TR) was evaluated using a reporter gene assay. […] In addition to 4-hydroxytamoxifen, the cells were also contacted with 10^−5 M of (R)-estradiol in experiments related to ERα and ERβ, and 10^−5 M of thyroxine in the experiment related to TR.
The transfected cells were contacted with varying concentrations of 4-hydroxytamoxifen in the absence of […] or presence of 10^−7 M of β-estradiol.

B1: ERRγ2: known human ERRγ isoform, the long form (SEQ ID NO: 6) (protein, listed as Homo sapiens)
chain: MDSVELCLPESFSLHYEEELLCRMSNKDRHIDSSCSSFIKTEPSSPASLTDSVNHHSPGGSSDASGSYSSTMNGHQNGLDSPPLYPSAPILGGSGPVRKLYDDCSSTIVEDPQTKCEYMLNSMPKRLCLVCGDIASGYHYGVASCEACKAFFKRTIQGNIEYSCPATNECEITKRRRKSCQACRFMKCLKVGMLKEGVRLDRVRGGRQKYKRRIDAENSPYLNPQLVQPAKKPYNKIVSHLLVAEPEKIYAMPDPTVPDSDIKALTTLCDLADRELVVIIGWAKHIPGFSTLSLADQMSLLQSAWMEILILGVVYRSLSFEDELVYADDYIMDEDQSKLAGLLDLNNAILQLVKKYKSMKLEKEEFVTLKAIALANSDSMHIEDVEAVQKLQDVLHEALQDYEAGQHMEDPRRAGKMLMTLPLLRQTSTKAVQHFYNIKLEGKVPMHKLFLEMLEAKV
enhancement of transcription when ERRγ2 coexisted with ERα: showed the function of enhancing transcription
